Results as given in paper PMC12892892.

Biological target: recombinant natriuretic peptide receptor B (NPR-B) (UniProt P20594)
Assay: SPR; recombinant NPR-B immobilised on a CM5 chip by amine coupling (10 ug/mL, 10 mM sodium acetate pH 4.5); CBD-CNP injected at 1.25, 2.5, 5.0, 10 and 20 uM in 50 mM Tris HCl pH 7.5, 200 mM NaCl, 1 mM CaCl2; Biacore X; single-cycle kinetics, 1:1 Langmuir model

UniProt P20594, sequence (P20594 23-458): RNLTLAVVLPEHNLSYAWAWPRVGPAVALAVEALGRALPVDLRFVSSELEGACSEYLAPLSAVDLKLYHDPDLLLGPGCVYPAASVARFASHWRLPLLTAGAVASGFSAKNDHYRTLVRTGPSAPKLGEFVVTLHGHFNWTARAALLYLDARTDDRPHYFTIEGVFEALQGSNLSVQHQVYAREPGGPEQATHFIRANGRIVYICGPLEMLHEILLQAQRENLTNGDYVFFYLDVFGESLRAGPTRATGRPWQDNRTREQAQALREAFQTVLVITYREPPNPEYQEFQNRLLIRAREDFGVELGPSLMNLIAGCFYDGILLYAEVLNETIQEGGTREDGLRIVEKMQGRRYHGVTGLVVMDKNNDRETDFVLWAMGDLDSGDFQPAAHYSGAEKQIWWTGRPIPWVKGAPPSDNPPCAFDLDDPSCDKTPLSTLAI

CBD-CNP (collagen-binding domain fused to C-type natriuretic peptide CNP-37) (from UniProt Q9X721 1003-1118)
Kd: 495 µM
